Here are results for ten molecules from patent publication US20110104157A1, “LIVER CANCER DRUG” (Chugai Seiyaku Kabushiki Kaisha, priority 2008, published 2011).

The nature of series [1]: Example 2 body weight loss in HepG2 xenograft mouse model. To be noted: Sorafenib 80 mg/kg oral, relative to tumor-associated weight loss of the model. The class given is in vivo. As for the experimental part: (§1) HepG2 cells or HuH-7 cells (5×10^5 cells) dispersed in 50% Matrigel (Becton Dickinson) were subcutaneously implanted. When the tumor volume reached 250 mm^3, the mice were divided into groups and administration commenced.
(§2) The asterisks in the figures indicate that P<0.05, based on the Dunnett's test. […] The open circles indicate the change in body weight in the group given the vehicle. […] The open squares indicate the change in body weight in the group given only Sorafenib in a dose of 80 mg/kg. […]

Series [2] can be described thus: Example 5 body weight loss in HepG2 xenograft mouse model. In kind it is in vivo. The following applies: Sorafenib 80 mg/kg oral. The text has this: Sorafenib was synthesized according to Organic Process Research & Development (2002) 6, 777-781.
Th data is expressed by the time course of the body weight of the mice (mean±SD).

The subject of a further series is HuH-7 xenograft. Nature of the series: Example 2 antitumor effect, HuH-7 xenograft mouse model (hGC33 and Sorafenib). To be noted: hGC33 5 mg/kg i.v. weekly x3 alone or Sorafenib 80 mg/kg oral 5 times per week x3 alone. In kind it is in vivo. Here is the method: as §1, §2
A further series deals with liver cancer. The following applies: liver cancer patients, phase II; cited from earlier work.
A short description of series [3]: thermal denaturation midpoint temperature (Tm) by DSC, Reference Example 3. The class given is physicochemical. The following applies: Fab domain peak, sodium acetate buffer pH 6.0 with 150 mmol/L NaCl, about 1 K/minute.
Description: The thermal denaturation midpoint temperature (Tm) was determined by the top of the denaturation peak in the thermogram (Cp versus T) obtained after heating the test sample solution at a constant programmed heating rate. The Tm value of the humanized H0L0 antibody was measured using a sample solution for DSC measurement prepared as described in the following. The antibody solution (corresponding to 50 to 100 μg) filled in a dialysis membrane was first dialyzed for 24 hours against a dialysis external solution of 20 mol/L sodium acetate buffer solution (pH 6.0) containing 150 mmol/L sodium chloride. Subsequently, the sample solution was adjusted its antibody concentration of 50 to 100 μg/mL with dialysis external solution and used as the sample solution for DSC measurement.
A suitable DSC instrument, for example, DSC-II (Calorimetry Sciences Corporation), is used for this experiment. The sample solution prepared as described above and the reference solution (dialysis external solution) were thoroughly degassed, and each of these test specimens was placed in a calorimeter cell and was thermally equilibrated at 40° C. A DSC scan was then run from 40° C. to 100° C. at a scan rate of approximately 1 K/minute. The results of this measurement are given as the top of the denaturation peak as a function of temperature.
Series [4] addresses T1, soluble GPC3 core polypeptide (Homo sapiens (Human), UniProt P51654 25-563).
T1 construct: It was immobilised on the ELISA plate at 1 ug/mL; also called glypican 3; antigen glypican 3
Description: competitive ELISA, soluble GPC3 core polypeptide on plate, competitor biotinylated H0L0. As for the experimental part:
100 μL of the soluble GPC3 core polypeptide (SEQ ID NO: 36) at 1 μg/mL was added to each well of a 96-well plate. The soluble GPC3 core polypeptide was immobilized on the plate by allowing the plate to stand overnight at 4° C. The soluble GPC3 core polypeptide immobilized on the plate was washed 3 times with a washing buffer using a Skan WASHER400 (Molecular Devices); and blocked with 200 μL blocking buffer at 4° C. for at least 30 min. The blocked plate on which soluble GPC3 core polypeptide was immobilized was then washed 3 times with washing buffer using the Skan WASHER400. […] The plate was left stand for 1 hour at room temperature, then washed 5 times with washing buffer using the Skan WASHER400 (Molecular Devices). 100 μL goat anti-streptavidin alkaline phosphatase (ZYMED), diluted 20,000× with substrate buffer, was added to each well, and the resulting plate was left stand for 1 hour at room temperature, and then washed 5 times with washing buffer using the Skan WASHER400. Phosphatase Substrate (Sigma) was prepared at 1 mg/mL in the substrate buffer, added at 100 μL, per well for 1 hour. The absorbance at 405 nm of the reaction solution in each well was measured using a Benchmark Plus (BIO-RAD), with the control absorbance at 655 nm.
(ELISA stands for enzyme-linked immunosorbent assay.)

A short description of series [5]: Tm of Fabs by VP-DSC, Reference Example 4. The class given is physicochemical. The following applies: PBS, 20° C. to 115° C., about 4K/min. As for the experimental part:
The Tm values of Fabs obtained from Hd1.8Ld1.6 antibody and pH7pL16 antibody were measured with VP-DSC (Micro Cal) using the method similar to Reference Example 3. In this experiment, PBS was used as a dialysis solution, and the antibody concentration in the test solution for DSC measurement was adjusted to 25-100 μg/ml. DSC scanning was set from 20° C. to 115° C. at the scanning rate of about 4K/min, with the reference solution (dialysis solution) and DSC measurement test solution. The thermal denaturation midpoint temperature of the Fabs of the Hd1.8Ld1.6 antibody and pH7pL16 antibody was 77.5 and 74.7° C., respectively.

Series [6] can be described thus: pI value by electrophoresis with PhastGel IEF 4-6.5, Reference Example 4. To be noted: for pI value: PhastGel IEF 4-6.5. The class given is physicochemical. As for the experimental part: The pI values of the Hd1.8Ld1.6 antibody and pH7pL16 antibody were measured by electrophoresis with PhastGel IEF 4-6.5 (GE Healthcase) using the method described in Reference Example 3 or similar method.

Series [7] concerns the target soluble GPC3 core polypeptide (Homo sapiens, UniProt P51654, S495A/S509A). Description: competitive ELISA of binding activity against biotinylated humanized H0L0 antibody. To be noted: for antigen binding activity compared with humanized H0L0 antibody: Reference Example 3. As for the experimental part:
The humanized H0L0 antibody and its point mutation-modified antibodies purified in (1) was evaluated by competitive ELISA. 100 μL of the soluble GPC3 core polypeptide (SEQ ID NO: 36) at 1 μg/mL was added to each well of a 96-well plate. The soluble GPC3 core polypeptide was immobilized on the plate by allowing the plate to stand overnight at 4° C. The soluble GPC3 core polypeptide immobilized on the plate was washed 3 times with a washing buffer using a Skan WASHER400 (Molecular Devices); and blocked with 200 μL blocking buffer at 4° C. for at least 30 min. The blocked plate on which soluble GPC3 core polypeptide was immobilized was then washed 3 times with washing buffer using the Skan WASHER400. Subsequently, each well of the plate received 200 μL of a mixture containing 100 μL of biotinylated humanized H0L0 antibody (final concentration=0.3 μg/mL) and 100 μL of the humanized H0L0 antibody or its point mutation-modified antibody (at various concentrations). The humanized H0L0 antibody was biotinylated using a Biotin Labeling Kit (Roche) according to the instructions provided with the kit. The plate was left stand for 1 hour at room temperature, then washed 5 times with washing buffer using the Skan WASHER400 (Molecular Devices). 100 μL goat anti-streptavidin alkaline phosphatase (ZYMED), diluted 20,000× with substrate buffer, was added to each well, and the resulting plate was left stand for 1 hour at room temperature, and then washed 5 times with washing buffer using the Skan WASHER400. Phosphatase Substrate (Sigma) was prepared at 1 mg/mL in the substrate buffer, added at 100 μL, per well for 1 hour. The absorbance at 405 nm of the reaction solution in each well was measured using a Benchmark Plus (BIO-RAD), with the control absorbance at 655 nm.
The binding activity to the antigen glypican 3 of each point mutation pI modified antibody was measured using the method described in Reference Example 3.

Series [8] is described as follows: pI value by isoelectric electrophoresis, Reference Example 3. The class given is physicochemical. Here is the method:
The pI value of each antibody was calculated based on the analysis by isoelectric electrophoresis. Electrophoresis was carried out as described in the following. Using a Phast-System Cassette (Amersham Bioscience), Phast-Gel Dry IEF (Amersham Bioscience) gel was swollen for about 60 minutes with a swelling solution with the composition given below.
• 1.5 mL 10% glycerol • 100 μL Pharmalyte 8-10.5 for IEF (Amersham Bioscience)
• 1.5 mL purified water • 20 μL Pharmalyte 8-10.5 for IEF (Amersham Bioscience) • 80 μL Pharmalyte 5-8 for IEF (Amersham Bioscience)
Approximately 0.5 μg antibody was loaded on the swollen gel and isoelectric electrophoresis was run using the PhastSystem (Amersham Bioscience) controlled by the program described below. The sample was added to the gel at Step 2 of this program. A Calibration Kit for pI (Amersham Bioscience) was used for the pI markers.
After electrophoresis, the gel was fixed with 20% TCA and silver staining was then carried out using a Silver Staining Kit, Protein (Amersham Bioscience) according to the instructions provided with the kit. After staining, the isoelectric point of each antibody (test sample) was calculated based on the already known isoelectric points of the pI markers.

For the next series, the system named is liver cancer cells. To be noted: against liver cancer cells; see WO 2006/006693; cited from earlier work.

Substitutions are numbered along the chain they refer to.

Sequence of soluble GPC3 core polypeptide (Homo sapiens, UniProt P51654, S495A/S509A) (P51654 with tags, fused parts or gaps S495A/S509A): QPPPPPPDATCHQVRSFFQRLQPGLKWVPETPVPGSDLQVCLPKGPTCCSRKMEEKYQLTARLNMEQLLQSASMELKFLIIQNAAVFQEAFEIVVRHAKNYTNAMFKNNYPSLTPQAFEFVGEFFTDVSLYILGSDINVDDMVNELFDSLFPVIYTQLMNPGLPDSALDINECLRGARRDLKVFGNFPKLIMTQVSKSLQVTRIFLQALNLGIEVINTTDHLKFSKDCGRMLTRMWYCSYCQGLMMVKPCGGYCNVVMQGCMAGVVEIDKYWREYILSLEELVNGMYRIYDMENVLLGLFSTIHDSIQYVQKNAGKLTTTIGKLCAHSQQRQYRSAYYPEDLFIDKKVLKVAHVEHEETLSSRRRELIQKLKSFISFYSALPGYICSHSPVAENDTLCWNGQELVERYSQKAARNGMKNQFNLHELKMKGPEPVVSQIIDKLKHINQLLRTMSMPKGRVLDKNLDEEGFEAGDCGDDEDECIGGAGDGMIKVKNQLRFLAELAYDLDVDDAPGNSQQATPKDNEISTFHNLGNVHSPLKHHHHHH
T1 sequence (P51654 other isoform, or with tags, fused parts or gaps limits assumed): as the sequence (P51654 with tags, fused parts or gaps S495A/S509A) above

As to `CNC(=O)c1cc(Oc2ccc(NC(=O)Nc3ccc(Cl)c(C(F)(F)F)c3)cc2)ccn1` [Sorafenib, 4-[4-[[4-chloro-3-(trifluoromethyl)phenyl]carbamoylamino]phenoxy]-N-methylpyridine-2-carboxamide], the “weight loss with Sorafenib alone” value in [1] was “further enhanced”; in series [2], “enhanced”. In the series on HuH-7 xenograft, the “tumor growth, single agent” value was “suppressed”.

As to `CS(=O)(=O)CCNCc1ccc(-c2ccc3ncnc(Nc4ccc(OCc5cccc(F)c5)c(Cl)c4)c3c2)o1` [lapatinib], in the series on liver cancer, the rate of response is reported as 0% and the time to progression was 1.8 months.

As for Synagis: example of existing antibodies, the “Tm value (thermal denaturation midpoint temperature)” value in series [3] came out at 85.4 °C.

B1: H15L4 antibody (antibody, V domains shown)
VH: QVQLVQSGAEVKKPGASVKVSCKASGYTFTDYEMHWIRQPPGQGLEWIGAIDPKTGDTAYSQKFKGRVTLTADKSTSTAYMELSSLTSEDTAVYYCTRFYSYTYWGQGTLVTVSS
VL: DIVMTQSPLSLPVTPGEPASISCRSSQSLVHSNRNTYLHWYQQKPGQAPRLLIYKVSNRFSGVPDRFSGSGSGTDFTLKISRVEAEDVGVYYCSQNTHVPPTFGQGTKLEIK
On to B1, for which, in [4], the binding result was “binds”.

B2: pH7pL16: pI modified humanized anti-glypican 3 antibody, pH7 (SEQ ID NO:31) and pL16 (SEQ ID NO:33) (antibody, V domains shown)
VH: B1 VH with K19T, Q43E, Q62E, K63S, K65Q, G66D
VL: B1 VL with R24Q, S25A, Q27E, Q42L, A48S, R50Q, L109V, K112E
modifications: Modified antibody
Consider B2, for which the “thermal denaturation midpoint temperature of the Fabs” value in series [5] came out at 74.7 °C. For the same molecule, in series [6], the “pI lower than that of Hd1.8Ld1.6 antibody by” value turned out to be 0.95 and the pI value is given as 6.52. For the same molecule, the “binding activity to glypican 3 compared with humanized H0L0 antibody” value in series [7] (Reference Example 4) was “comparative”.

B3: Hd1.8Ld1.6: antibody composed of Hspd1.8 (SEQ ID NO: 27) and Lspd1.6 (SEQ ID NO: 29), lowered pI (antibody, V domains shown)
VH: B1 VH with K19T, Q43E, K63S, K65Q, G66D
VL: B1 VL with S25A, Q27E, K79T, R82S, V83L, E84Q
modifications: Modified antibody
Take B3: in series [5], the “thermal denaturation midpoint temperature of the Fabs” value stood at 77.5 °C. In addition, the pI value in [6] was 7.47; in series [8] (isoelectric electrophoresis, Phast-Gel Dry IEF) it was 7.4. Besides, in series [8], the “reduction of pI relative to humanized H0L0 antibody” value is listed as 1.5. The “antigen binding activity compared with humanized H0L0 antibody” value in [7] is reported as “about the same”.

B4: hGC33: humanized anti-glypican 3 antibody, H chain variable region SEQ ID NO: 3, L chain SEQ ID NO: 4 (antibody, V domains shown)
VH: B1 VH with I37V, P40A, I48M, I51L
VL: B1 VL with I2V, R34G, Q42L, A48S, R50Q
modifications: Modified antibody
Take B4: the “tumor growth, single agent” value in the series on HuH-7 xenograft was “suppressed”.

B5: H15L4: antibody combining heavy chain H15 (SEQ ID NO: 34) and light chain L4 (SEQ ID NO: 35) (antibody, V domains shown)
VH: B1 VH
VL: B1 VL
modifications: Modified antibody
Regarding B5, the “antigen binding activity compared with humanized H0L0 antibody” value in series [7] is “about the same”.

B6: Hspd1.8Lspd1.6 (Hd1.8Ld1.6) antibody (antibody, V domains shown)
VH: B1 VH with K19T, Q43E, K63S, K65Q, G66D
VL: B1 VL with S25A, Q27E, K79T, R82S, V83L, E84Q
As to B6, in [4], the binding result is listed as “binds”.

B7: GC33: Mouse anti-human glypican 3 monoclonal antibody, clone GC33, WO 2006/006693; variable regions SEQ ID NOs: 1 and 2 (antibody, V domains shown)
VH: QVQLQQSGAELVRPGASVKLSCKASGYTFTDYEMHWVKQTPVHGLKWIGALDPKTGDTAYSQKFKGKATLTADKSSSTAYMELRSLTSEDSAVYYCTRFYSYTYWGQGTLVTVSA
VL: DVVMTQTPLSLPVSLGDQASISCRSSQSLVHSNGNTYLHWYLQKPGQSPKLLIYKVSNRFSGVPDRFSGSGSGTDFTLKISRVEAEDLGVYFCSQNTHVPPTFGSGTKLEIK
modifications: Modified antibody
Consider B7, for which, in the series on liver cancer cells, the “ADCC and CDC activities” value was “greater”.
